Test results from patent US20230303690A1 (published 2023).
One block for each binder: values may come before it.

What was measured:
[1] = target: T1, LAG3 Protein, Human, Recombinant (His Tag) (Sino Biological Catalog No. 16498-H08H) (human, UniProt P18627 23-450); experiment: ELISA, coated hLAG3-His
T1 construct: Bought protein; also called hLAG3-His; LAG3-His; not shown: His tag
T1 sequence (looked up): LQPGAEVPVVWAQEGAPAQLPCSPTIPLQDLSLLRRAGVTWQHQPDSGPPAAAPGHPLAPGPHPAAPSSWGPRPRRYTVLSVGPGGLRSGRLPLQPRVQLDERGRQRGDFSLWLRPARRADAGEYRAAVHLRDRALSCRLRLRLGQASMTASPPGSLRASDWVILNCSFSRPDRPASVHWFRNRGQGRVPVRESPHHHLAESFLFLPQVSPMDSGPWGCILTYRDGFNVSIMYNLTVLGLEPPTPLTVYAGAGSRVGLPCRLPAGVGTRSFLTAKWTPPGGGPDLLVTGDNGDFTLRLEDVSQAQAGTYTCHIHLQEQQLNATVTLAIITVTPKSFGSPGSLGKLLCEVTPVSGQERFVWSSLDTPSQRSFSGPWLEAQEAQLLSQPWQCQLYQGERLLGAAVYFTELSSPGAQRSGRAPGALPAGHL
Description: Plates were coated with 100 µL per well of Coating Solution, and then covered, and incubated overnight (12-18 hours) at 2-8° C. The wells were aspirated and washed 1 time with >200 µL of Wash buffer per well, inverted and tapped on absorbent paper to remove excess liquid. The plates were blocked with 200 µL per well with Blocking buffer (1×PBS+4% milk) for 1 hour at room temperature, aspirated, inverted, and tapped on absorbent paper to remove excess liquid. Standards and sample dilutions were prepared in Blocking buffer. 100 µL of standards (in duplicate) and samples were pipetted into designated wells. After incubation for 1 hour at room temperature with gentle continual shaking (~500 rpm), the wells were aspirate and washed 3 times with >200 µL of Wash buffer per well, inverted and tapped on absorbent paper to remove excess liquid.
The primary antibody solution was diluted with Blocking buffer. See Table 14 for recommended primary antibody dilution. 100 µL of the primary antibody solution was added into each well and incubated for 2 hours at room temperature with gentle continual shaking (~500 rpm). The wells were aspirated and washed 3 times with >200 µL of Wash buffer per well, inverted and tapped on absorbent paper to remove excess liquid. The working solution of secondary antibody was made with Blocking buffer by diluting the secondary antibody by 2,500 times. 100 µL of secondary antibody working solution was added into each well and incubated for 30 minutes at room temperature. The wells were aspirated and washed 5 times with >200 µL of Wash buffer per well, inverted and tapped on absorbent paper to remove excess liquid. 100 µL of TMB substrate solution (Biopanda, TMB-S-004) was added to each well and incubated for 30 minutes at room temperature. 100 µL of Stop solution (Solarbio, C1058) was added to each well.

[2] = target: T2, human LAG3 expressed on cells (human, UniProt P18627 23-525); experiment: cell ELISA, 293T-hLAG3 cells
T2 construct: whole, on cells
T2 sequence (looked up): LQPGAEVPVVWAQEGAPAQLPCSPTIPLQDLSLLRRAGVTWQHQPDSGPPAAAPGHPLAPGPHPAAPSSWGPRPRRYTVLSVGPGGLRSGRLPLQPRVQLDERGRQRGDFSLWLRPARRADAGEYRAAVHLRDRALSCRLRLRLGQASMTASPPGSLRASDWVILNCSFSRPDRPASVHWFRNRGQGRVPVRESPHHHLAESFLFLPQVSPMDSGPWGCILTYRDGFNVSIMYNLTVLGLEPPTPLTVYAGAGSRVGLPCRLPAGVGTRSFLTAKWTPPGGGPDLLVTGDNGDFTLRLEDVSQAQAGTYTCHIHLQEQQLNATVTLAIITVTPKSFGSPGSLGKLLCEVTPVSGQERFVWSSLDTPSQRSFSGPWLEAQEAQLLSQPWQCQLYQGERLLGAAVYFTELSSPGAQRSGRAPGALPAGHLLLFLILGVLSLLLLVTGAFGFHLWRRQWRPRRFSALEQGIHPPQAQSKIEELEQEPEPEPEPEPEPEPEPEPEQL
Description: Each well was treated with stimulants. The cells were then fixed and blocked with Blocking buffer. The Primary antibodies were added. The wells were washed and a HRP-conjugated secondary antibody was added. The wells were washed with 1x PBS and a solution containing TMB (Biopanda, TMB-S-004) was added. The TMB reacted with HRP to change the color thereof from colorless to blue. An acid stop solution (Solarbio, C1058) was then added to stop the reaction and change the blue color to yellow.
Materials are listed below: [0072] […] 2) Blocking buffer: 1×PBS+3% BSA (Sigma, B2064); [0074] […] [0075] 4) Secondary antibody: Goat anti-human IgG1 Fc antibody, HRP (1:2500, invitrogen, A18817). [0076]

[3] = target: T2, human LAG3 expressed on cells; experiment: cell-based or functional assay
[4] = target: T2, human LAG3 expressed on cells; experiment: FACS, 293T-hLAG3 cells
Description: 5) The prepared antibody samples were added to the 96-well plate according to the platemap, the cells were resuspended and incubate at 4° C. for 1 hour.
7) 3% BSA/1xPBS was used to dilute Goat polyclonal Secondary Antibody to Human IgG-Fc (DyLight® 650) to the desired concentration (1:200), in which the cells were resuspended and incubated at 4° C. for 1 hour.
9) The cells were resuspended in 200 µl of 3% BSA/1xPBS, and performed flow cytometric testing by Shsti Biotech Inc.

EC50 [1]: 3.14 nM
OD450 at 0.004572 ug/ml [1]: 0.039
OD450 at 0.013717 ug/ml [1]: 0.042
OD450 at 0.041152 ug/ml [1]: 0.063
OD450 at 0.123457 ug/ml [1]: 0.331
OD450 at 0.37037 ug/ml [1]: 1.5
OD450 at 1.111111 ug/ml [1]: 1.84
OD450 at 3.333333 ug/ml [1]: 1.77
OD450 at 10 ug/ml [1]: 2.15
EC50 [2]: 1.18 nM
OD450 at 0.0045725 ug/ml [2]: 0.097
OD450 at 0.0137174 ug/ml [2]: 0.198
OD450 at 0.0411523 ug/ml [2]: 0.408
OD450 at 0.1234568 ug/ml [2]: 0.79
OD450 at 0.3703704 ug/ml [2]: 1.13
OD450 at 1.111111 ug/ml [2]: 1.28
OD450 at 3.333333 ug/ml [2]: 1.21
OD450 at 10 ug/ml [2]: 1.26
IL-2, % of BMS, at 0.005080526 ug/mL [3]: 5.57%
IL-2, % of BMS, at 0.015241579 ug/mL [3]: 13.4%
IL-2, % of BMS, at 0.045724737 ug/mL [3]: 12.1%
IL-2, % of BMS, at 0.137174211 ug/mL [3]: 18%
IL-2, % of BMS, at 0.411522634 ug/mL [3]: 27.3%
IL-2, % of BMS, at 1.234567901 ug/mL [3]: 36.5%
IL-2, % of BMS, at 3.703703704 ug/mL [3]: 43.4%
IL-2, % of BMS, at 11.11111111 ug/mL [3]: 50%
IL-2, % of BMS, at 33.33333333 ug/mL [3]: 52.9%
IL-2, % of BMS, at 100 ug/mL [3]: 52.8%
EC50 [4]: 1.77 nM
FACS signal at 0.061 nM [4]: 163
FACS signal at 0.1829 nM [4]: 393
FACS signal at 0.5487 nM [4]: 1010
FACS signal at 1.6461 nM [4]: 2240
FACS signal at 4.9383 nM [4]: 3570
FACS signal at 14.815 nM [4]: 4130
FACS signal at 44.445 nM [4]: 4490
FACS signal at 133.335 nM [4]: 4630
B1: sdAb No. 27 (VHH)
VHH: QVQLVESGGGLVQPGGSLRLSCAASGFTLDYYAIGWFRQAPGKEREGVSCIRSSDGSTYYADSVKGRFTISSDNTKNTVYLQMNSLKPEDTAVYYCATDRYSDCRGPYENWGQGTQVTVSS
notes: Fc of the tested form not described; also called sdAb 27; not shown: Fc part implied by anti-human Fc capture and anti-human IgG Fc detection

IL-2, % of BMS, at 0.005080526 ug/mL [3]: 3.24%
IL-2, % of BMS, at 0.015241579 ug/mL [3]: -0.59%
IL-2, % of BMS, at 0.045724737 ug/mL [3]: 8.03%
IL-2, % of BMS, at 0.137174211 ug/mL [3]: 2.39%
IL-2, % of BMS, at 0.411522634 ug/mL [3]: 9.2%
IL-2, % of BMS, at 1.234567901 ug/mL [3]: 25.1%
IL-2, % of BMS, at 3.703703704 ug/mL [3]: 30.6%
IL-2, % of BMS, at 11.11111111 ug/mL [3]: 34.1%
IL-2, % of BMS, at 33.33333333 ug/mL [3]: 39.8%
IL-2, % of BMS, at 100 ug/mL [3]: 53.7%
EC50 [4]: 1.48 nM
FACS signal at 0.061 nM [4]: 99.2
FACS signal at 0.1829 nM [4]: 247
FACS signal at 0.5487 nM [4]: 618
FACS signal at 1.6461 nM [4]: 1410
FACS signal at 4.9383 nM [4]: 2000
FACS signal at 14.815 nM [4]: 2280
FACS signal at 44.445 nM [4]: 2540
FACS signal at 133.335 nM [4]: 2580
B2: sdAb No. 25 (VHH)
VHH: QLQLVESGGGLVQAGGSLRLSCAASGSIESFSFMGWYRQAPGKQRELVAGFTGAASLSFSTYTDAVKGRFTISRDNAKNTVYLQMNSLKPEDTAVYFCNVDPWSQSWPGRYWGQGTQVTVSS
notes: Fc of the tested form not described; also called sdAb 25; sdAb #25; not shown: Fc part implied by anti-human Fc capture and anti-human IgG Fc detection

EC50 [1]: 2.17 nM
EC50 [2]: 0.904 nM
OD450 at 0.0045725 ug/ml [2]: 0.104
OD450 at 0.0137174 ug/ml [2]: 0.259
OD450 at 0.0411523 ug/ml [2]: 0.543
OD450 at 0.1234568 ug/ml [2]: 1.01
OD450 at 0.3703704 ug/ml [2]: 1.3
OD450 at 1.111111 ug/ml [2]: 1.42
OD450 at 3.333333 ug/ml [2]: 1.44
OD450 at 10 ug/ml [2]: 1.48
B3: sdAb No. 17 (VHH)
VHH: QLQLVESGGGLVQPGGSLRLSCAASGLTLDGYAIGWFRQAPGKEREGLACISGSDGSTHYLDSVKGRFTISRDNGKNTMALQMNSLQFGDTAIYYCAARRGSCSGSWTYWGQGTQVTVSS
notes: Fc of the tested form not described; also called sdAb 17; not shown: Fc part implied by anti-human Fc capture and anti-human IgG1 Fc detection
